Data taken from paper PMC11840766 (ACS Omega, 2025).

Target: T1, extracellular protein domain (position 43-300) of human CD38 (Homo sapiens, UniProt P28907)
T1 construct: human CD38, extracellular domain, position 43-300; also called CD38 (extracellular domain); source: kindly provided by Dr. Hanna Tegel
Assay: SPR; ProteOn XPR36; scFv_(CD38) sortase-coupled to a G5-silk coating on bare gold outside the instrument; CD38 extracellular domain (printed: 200 mM) in PBS pH 7.4/0.01% Tween 20 flown at 25 uL/min, 30 min
Details: both partners purified

B1: scFv_(CD38)-silk (scFv_(CD38) sortase-coupled to the N-terminus of G5-FN-4RepCT), as silk coating (scFv, V domains shown)
VH: QVQLVQSGAEVKKPGSSVKVSCKPSGGTFRSYAISWVRQAPGQGLEWMGRIIVFLGKVNYAQRFQGRVTLTADKSTTTAYMELSSLRSEDTAVYYCTGEPGARDPDAFDIWGQGTMVTVSS
VL: DIQMTQSPSSLSASVGDRVTITCRASQGIRSWLAWYQQKPEKAPKSLIYAASSLQSGVPSRFSGSGSGTDFTLTISSLQPEDFATYYCQQYNNYPLTFGGGTKVEIK
notes: VH of the anti-CD38 scFv; 3xG4S linker, written out from the printed name; VL of the anti-CD38 scFv; what is left of the sortase recognition tag LPETGG after sortase A cleaves between threonine and glycine; the five N-terminal glycines of G5-silk, told in words; 4RepCT, a miniature form of the major ampullate spidroin 1 (MaSp 1) from Euprosthenops australis; The GG-His6 end is lost on coupling; …
B1: binds.
